Measured values: US11230704B2, “Oxidation of highly unsaturated fatty acids with novel 8-lipoxygenase derived from Malacostraca” (Bizen Chemical Co., Ltd., priority 2018, dated 2022)

Legend:
[1] = system: peroxisome proliferator-activated receptor (PPAR); conditions: background statement, Non Patent Literature 1; cited from earlier work
[2] = Measurement of activity of PK LOX1: docosahexaenoic acid added to medium of PK LOX1 expressing Sf9 insect cells, LC-QTOFMS of cell extract; assay type: cell-based; conditions: 50 μM, 4 hours; FIG. 6C
Method: (§1) A P1 baculovirus stock prepared by cryopreserving a culture supernatant of Sf9 insect cells transduced with bacmid expressing PK LOX1 was added to a medium of Sf9 insect cells and cultured for 1 week. 50 μM of arachidonic acid, eicosapentaenoic acid, or docosahexaenoic acid was added to the medium of baculovirus infected cells, and the cells were centrifuged and collected after 4 hours of culture. After removing the medium from the Sf9 cells and adding acetonitrile to the cells and sonicating the cells, the solution was centrifuged for 10 minutes at 20,000 g, and the supernatant was used as an extract. 5 μL of the extract was subjected to high performance liquid chromatography/mass spectrometry system (LC-QTOFMS: Agilent) to analyze 8-HETE, 8-HEPE, and 10-HDoHE. […] The 8-HETE content after adding an arachidonic acid, 8-HEPE content after adding an eicosapentaenoic acid, and 10-HDoHE content after adding a docosahexaenoic acid are higher in a PK LOX1 expressing Sf9 insect cell extract compared to an extract of EGFP expressing Sf9 insect cells used as a control. It was confirmed that 8-HETE, 8-HEPE, and 10-HDoHE production is induced by PK LOX1 expression (FIG. 6C).

[3] = Measurement of activity of PK LOX1: arachidonic acid added to medium of PK LOX1 expressing Sf9 insect cells, LC-QTOFMS of cell extract; assay type: cell-based; conditions: 50 μM, 4 hours; FIG. 6C
Method: as §1

[4] = Measurement of activity of PK LOX1: EPA added to medium of PK LOX1 expressing Sf9 insect cells, LC-QTOFMS of cell extract; assay type: cell-based
Method: as §1

[5] = Measurement of activity of PK LOX2: thawed PK LOX2 expressing Sf9 cell pellets incubated with EPA, LC-QTOFMS; assay type: biochemical, Sf9 cells
Method: A baculovirus stock expressing PK LOX2 obtained by the same method as PK LOX1 in Example 3 was prepared. Sf9 cells were infected therewith. After washing the Sf9 cells after two days from infection with PBS and centrifuging the cells at 1500 g, the cells were frozen at −80° C. after removing the PBS. 50 μL of 200 mM Tris-HCl (pH of 7.4) supplemented with EPA at a concentration of 50 μM was added to PK LOX2 expressing Sf9 cell pellets thawed on ice, and the pellets were incubated for 4 hours at 27° C. After adding 150 μL of acetonitrile (containing 1% formic acid) to the incubated solution and vortexing the solution, the solution was centrifuged for 10 minutes at 4° C. at 20,000 g. The supernatant was collected and 5 μL thereof was subjected to LC-QTOFMS to analyze 8-HEPE.

For `CCC=CCC=CCC=CC=CC(O)CC=CCCCC(=O)O` (centres unmarked) [8-HEPE, 8-hydroxyeicosapentaenoic acid], the “PPAR activating action compared with EPA” value [1] is listed as “higher peroxisome proliferator-activated receptor (PPAR) activating action than EPA”.

B1: PK LOX1: lipoxygenase isolated from Euphausia pacifica, 691 amino acids, SEQ ID NO: 2, expressed His-tagged in Sf9 insect cells (protein, listed as Euphausia pacifica)
chain: MAPIKEKKSFKLTAATGNQDGAGTDANVYVTFEDEEGRRTKEKKLDKLLYNDLEKGKKDKYDINAPVEFGAVKKLHVHRDSTGLGDSWFCDYFEIKDLRFKGNNNEPSPTKKEYYYFPIHRWISSQHRYEFDEYGTCLPQADPCIGPRKADLEAKKSSYNYVYRIGAMAATDTTDACVGHCAQVETLPADEKFSEDYYWNFATDKLKLLAETKWMEWTNQTKWNSLSDLRSVYKKSLGEPKCLDVWREDWWFGLQRLQGVNPVIIELCTQIPDNLAVTDTTVEGLMDDLTLNEALENKKIFICDLKIMDGLCCKENRELAAPLALFYLNKENKLLPIALQLKQEKGDDNPVFTPKDSKNTWLVAKMFYNNSEAQHHQALTHLGYTHLLMEGVVVCTHRNLSPSHPLFKLMAPHFLFLLAINSRGLEKLVSEGGWVDCCMTQGLCGILDLMKRGFEAWTYTKFGSVSAELEARGVLNKDVLPYYPYRDDALPLFAEIRKYVKTIVEHHYDNEDKMKEDWELKSWREELAKQRSENGVGLADIPGSKEDGFNSVDEVVDVVTMIISTCSLGHAASNFQQYEQYGYVPNYPGILMSTLPKEKKEYTEEEIMQILPDKRMTLDIMVITKLLSTKGTQSLGDFEMQYLYDPVGVQAAKDFRKNLDRLSKKNKLENVDRQWDFDWLDPEFVPNAISV
modifications: His tag
For B1, the “10-HDoHE content after adding a docosahexaenoic acid, compared to extract of EGFP expressing Sf9 insect cells (control)” value [2] was “higher”, the “8-HETE content after adding an arachidonic acid, compared to extract of EGFP expressing Sf9 insect cells (control)” value [3] was “higher” and the “8-HEPE content after adding an eicosapentaenoic acid, compared to extract of EGFP expressing Sf9 insect cells (control)” value ([4]; 50 μM, 4 hours, FIG. 6C) was “higher”. For the same molecule, the “production of 8-HEPE in cell extract” value ([4]; EPA 50 μM added, 4 hours of culture, FIG. 6A) was “Production of 8-HEPE was observed”, the “activity compared with specific activity of lipoxygenases known in the art” value ([4]; PK LOX1 expressing Sf9 cells) was “markedly stronger than the specific activity of lipoxygenases known in the art” and the “position specificity of oxidation of EPA” value ([4]; only one peak of m/z=317.22, retention time and MS/MS match 8-HEPE standard, FIG. 6A, 6B) was “catalyzed position 8 specific oxidation of EPA”. For the same molecule, the “specific activity of lipoxygenase (8-HEPE/PK LOX1 expressing Sf9 cell protein)” value ([4]; printed as 'up to about', 50 μM substrate, 4 hours of culture, FIG. 6C) was “about 2.5 μg/mg”.

B2: PK LOX2: lipoxygenase isolated from Euphausia pacifica, 686 amino acids, SEQ ID NO: 4, expressed His-tagged in Sf9 insect cells (protein, listed as Euphausia pacifica)
chain: MVALRCFKPEEMHIFTICGLFLAAMEVSNAYLCNNNFLVTVKTGYGTDAGSNASVILVLEDQNRNEIRNWLSIPKQDETGNHRIPIPTSFGRIVTVELALDYKLAPDWYCEDIFIEDPRLNDRLYFPIDRRIQGNQFYDFQNYATCLPQFDQNSISRRLTLQKKREDYQLSYDRTAAMVKDLPQDEIFHQDYISSIRAIQKTSIDDQIPLLQAWQSSNNISAFFGGDFYMPQSIQFWKEDAWFGAQRVQGIVPNIIELCKQIPDKLGVTEDTISGLLEGSTLQQALKNNKIFISDLELLDGIQYSGVWSDNADHAAPISVFYLNKIDQLMPIAIQLRQQKGPKNPVYTPKDPPNTWLVAKIYYNNAESQFHQILVHFGYTHMIMDGIATSMNRQLSPSHPVFKILKPHFLYLLAINRLGEQELFVPQGVFPYFSIGLDGMNQLLAKAVPQFTLARAIGSVESDARARGVWDKQVLPYYPFRDDAHSMYNIIKKYATKVIYYYYNTPGKIINDMELQRWRTELAKPRAQGGVGIPDLPGSDTAGFRDINEIIDLVTTIITHSSVGHAAVNFPMYDTYGYFPNYPPDLNEGPPLQKMLYTEDEIMSLFPNGSHAFRVRATIRVLSWQGTNDCGDFEKIYLYDPVSQEAQVELRKDLAMFSKEVMNRNSKRFIPYKYLDPNYVPNAISI
modifications: His tag
In the case of B2, the 8-HEPE production ([5]; EPA 50 μM, 4 hours at 27° C., FIG. 7) is reported as 8-HEPE production was observed, the “activity compared with specific activity of lipoxygenases known in the art” value ([5]; PK LOX2 expressing Sf9 cells) is reported as “markedly stronger than the specific activity of lipoxygenases known in the art” and the “specific activity of lipoxygenase (8-HEPE/PK LOX2 expressing Sf9 cell protein)” value ([5]; printed as 'up to about', EPA 50 μM, 200 mM Tris-HCl pH 7.4, 4 hours at 27° C., FIG. 7) is reported as “about 3.2 ng/mg”.
